Data as given in publication PMC3574147, “Association of RNAs with Bacillus subtilis Hfq”.

Biological target: T1, Hfq (Bacillus subtilis, UniProt O31796 1-73)
T1 sequence: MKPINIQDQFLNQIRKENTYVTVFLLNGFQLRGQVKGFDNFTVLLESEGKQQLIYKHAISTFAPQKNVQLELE
Test: EMSA; 10 mM Mg2+, 2.5 ng/ul yeast tRNA; 50 mM Hepes pH 7.5, 150 mM NaCl, 10 mM MgCl2, 2.5 ng/ul yeast tRNA, ~2 fmol RNA in 10 ul, 30 min at 25 C; 5% native TBE PAGE
Settings: protein: recombinant; tags: His6 (pHisII vector); chain copies: 6; label: 32P (gamma-32P ATP)

B1: SR4 antitoxin RNA (structured_RNA)
RNA: GGGUAAUGAUACAAUUAUAUAAUUAUUUUUUGCAUUUUGUUUAAUUAAAUGCAAAGCUGCCCAUCAAAGGGCUUGCUCGUUGUCAAAUCUUAAAAUAAAAAGACCAGGGUGUUGGUAGCACCCUGGCUCUGUACAAGCGUAGGCCUAACCCUUCAGGUGUCCAAACUCAAGGGAAGGUCUAUUUUUU
B1: binds.
